Source: US20110081661A1, “Modified photoproteins with increased affinity for calcium and enhanced bioluminescence and uses thereof” (Millipore Corporation, priority 2009, published 2011)
Read-outs that look alike come from different tables or passages of the source.

B1: Cyto-clytin K168D: K168D modified Clytin amino acid sequence, SEQ ID NO:9; cytosolic (protein)
chain: MADTASKYAVKLRPNFDNPKWVNRHKFMFNFLDINGDGKITLDEIVSKASDDICAKLGATPEQTKRHQDAVEAFFKKIGMDYGKEVEFPAFVDGWKELANYDLKLWSQNKKSLIRDWGEAVFDIFDKDGSGSISLDEWKAYGRISGICSSDEDAEKTFKHCDLDNSGDLDVDEMTRQHLGFWYTLDPNADGLYGNFVP
B2: Cyto-aequorin: Wild-type Aequorin (wt-Aequorin) amino acid sequence, SEQ ID NO:2; cytosolic (protein, listed as Aequorea victoria)
chain: MTSKQYSVKLTSDFDNPRWIGRHKHMFNFLDVNHNGKISLDEMVYKASDIVINNLGATPEQAKRHKDAVEAFFGGAGMKYGVETDWPAYIEGWKKLATDELEKYAKNEPTLIRIWGDALFDIVDKDQNGAITLDEWKAYTKAAGIIQSSEDCEETFRVCDIDESGQLDVDEMTRQHLGFWYTMDPACEKLYGGAVP

Columns and labels:
EP1 Receptor [1] = target: T1, EP1 Receptor (Homo sapiens, UniProt P34995); assay type: cell-based; conditions: read-out: EP1 Receptor EC50 for PGE2
T1 construct: host or cells: HEK293T
T1 sequence (P34995 1-402): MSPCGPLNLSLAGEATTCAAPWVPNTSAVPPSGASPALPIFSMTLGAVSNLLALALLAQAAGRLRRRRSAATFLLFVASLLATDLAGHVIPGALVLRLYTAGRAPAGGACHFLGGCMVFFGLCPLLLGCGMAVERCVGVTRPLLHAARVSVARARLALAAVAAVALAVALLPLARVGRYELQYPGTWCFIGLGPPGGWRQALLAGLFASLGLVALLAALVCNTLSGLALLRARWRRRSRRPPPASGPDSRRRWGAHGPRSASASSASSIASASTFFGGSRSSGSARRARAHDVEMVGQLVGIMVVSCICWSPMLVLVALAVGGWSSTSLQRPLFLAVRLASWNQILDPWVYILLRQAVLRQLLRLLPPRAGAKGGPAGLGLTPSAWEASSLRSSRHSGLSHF
Method: The cells were subsequently thawed and either directly placed into FreeStyle media (INVITROGEN) containing 5 μM coelenterazine (Thaw/Assay), or plated in a flask overnight in growth media consisting of DMEM/F12 containing 10% fetal bovine serum, non-essential amino acids, and penicillin/streptomycin prior to loading with coelenterazine (Thaw/ON Recovery). After loading with coelenterazine for 3-4 h, the cells were centrifuged and resuspended in HBSS with calcium and magnesium.
Thaw/Assay indicates dose response of cells that were thawed and directly loaded with coelenterazine prior to assay, and Thaw/ON Recovery indicates dose response of cells allowed to recover in growth media overnight prior to loading and assay. […] The EC50 values for activation of each receptor by its ligand for each cell treatment method were determined as described above for FIG. 5 for cytosolic clytin K168D photoprotein transfected into HEK293T cells with cotransfected GIP Receptor and G protein.

EP1 Receptor [2] = target: T1, EP1 Receptor; assay: Fluorescent calcium assay, stable cell line, EP1 Receptor; assay type: cell-based; conditions: read-out: EP1 Receptor EC50 for PGE2; Fluorescent Ca^2+ assay, cell line stably expressing the receptor
TRPA1 cation channel = target: T2, TRPA1 cation channel (Homo sapiens, UniProt O75762); assay: Ion channel-mediated bioluminescence in HEK293 cells stably expressing TRPA1, induced by AITC; assay type: cell-based; conditions: HEK293 cells stably expressing TRPA1, AITC 10^−6 to 10^−3.5 M
T2 construct: host or cells: HEK293
T2 sequence (O75762 whole entry): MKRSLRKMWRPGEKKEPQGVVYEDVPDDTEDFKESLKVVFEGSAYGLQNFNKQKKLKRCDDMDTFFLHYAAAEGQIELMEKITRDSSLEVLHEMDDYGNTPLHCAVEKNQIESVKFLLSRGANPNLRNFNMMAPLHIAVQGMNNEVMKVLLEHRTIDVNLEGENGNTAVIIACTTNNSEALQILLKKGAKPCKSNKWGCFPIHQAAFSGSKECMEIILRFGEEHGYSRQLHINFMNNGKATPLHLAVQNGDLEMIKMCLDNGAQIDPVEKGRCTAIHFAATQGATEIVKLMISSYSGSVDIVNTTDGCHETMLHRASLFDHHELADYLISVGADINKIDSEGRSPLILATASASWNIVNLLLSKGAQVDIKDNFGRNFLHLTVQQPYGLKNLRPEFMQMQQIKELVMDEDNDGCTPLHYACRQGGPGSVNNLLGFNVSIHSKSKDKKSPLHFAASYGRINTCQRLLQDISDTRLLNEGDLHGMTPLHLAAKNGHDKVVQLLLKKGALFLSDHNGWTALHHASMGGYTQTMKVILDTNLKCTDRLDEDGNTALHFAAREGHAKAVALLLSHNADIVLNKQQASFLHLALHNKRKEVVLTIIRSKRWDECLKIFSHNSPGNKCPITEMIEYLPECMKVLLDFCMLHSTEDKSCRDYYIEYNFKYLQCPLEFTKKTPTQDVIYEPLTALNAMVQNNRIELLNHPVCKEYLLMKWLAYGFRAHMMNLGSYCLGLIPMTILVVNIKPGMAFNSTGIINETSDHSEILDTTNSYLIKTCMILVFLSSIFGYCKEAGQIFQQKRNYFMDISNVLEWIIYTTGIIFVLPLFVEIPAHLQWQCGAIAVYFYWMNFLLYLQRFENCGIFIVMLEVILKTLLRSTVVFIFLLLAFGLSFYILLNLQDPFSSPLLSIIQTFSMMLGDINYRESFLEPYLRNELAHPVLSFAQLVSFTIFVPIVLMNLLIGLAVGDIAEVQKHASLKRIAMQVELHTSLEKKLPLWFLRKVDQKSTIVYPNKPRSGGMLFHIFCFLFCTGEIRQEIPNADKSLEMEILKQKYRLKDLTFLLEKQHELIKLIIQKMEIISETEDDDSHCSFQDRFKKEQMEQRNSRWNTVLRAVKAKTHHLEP

GIP Receptor = target: T3, GIP Receptor (Homo sapiens, UniProt P48546); assay: GIP receptor-mediated bioluminescence in HEK293T cells with chimeric promiscuous G protein (FIG. 5, Table II); assay type: cell-based; conditions: for % GPCR/total: signal induced by maximal GIP (1 μM) as percentage of signal induced by Triton X-100 with 1 mM Ca^2+; for Signal: background with GIP: signal induced by maximal GIP (1 μM) divided by signal induced by buffer alone
T3 construct: host or cells: HEK293T
T3 sequence (P48546 22-466): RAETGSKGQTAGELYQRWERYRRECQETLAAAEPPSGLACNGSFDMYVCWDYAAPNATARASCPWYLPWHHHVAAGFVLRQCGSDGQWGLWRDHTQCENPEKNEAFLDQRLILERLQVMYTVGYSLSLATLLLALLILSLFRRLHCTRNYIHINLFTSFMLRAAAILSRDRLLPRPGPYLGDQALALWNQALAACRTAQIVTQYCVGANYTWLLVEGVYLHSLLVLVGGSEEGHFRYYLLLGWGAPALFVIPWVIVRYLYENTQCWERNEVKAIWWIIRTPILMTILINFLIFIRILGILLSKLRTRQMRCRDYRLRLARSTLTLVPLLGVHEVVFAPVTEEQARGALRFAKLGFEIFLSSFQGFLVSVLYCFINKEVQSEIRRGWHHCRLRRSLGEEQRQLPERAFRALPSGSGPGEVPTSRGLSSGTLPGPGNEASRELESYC

[3] = Calcium EC50 of mitochondrially targeted photoproteins in HEK293T cells without cotransfected GPCR or G protein (Table II); assay type: cell-based; conditions: no cotransfected GPCR or G protein
H1 histamine receptor [4] = target: T4, H1 histamine receptor (Homo sapiens, UniProt P35367); assay: GPCR-mediated versus total bioluminescence in U-2OS cells (FIG. 4); assay type: cell-based; conditions: 10 μM histamine vs Triton X-100 with 1 mM calcium
T4 construct: expressed in transfected cells; host or cells: U-2OS
T4 sequence (P35367 whole entry): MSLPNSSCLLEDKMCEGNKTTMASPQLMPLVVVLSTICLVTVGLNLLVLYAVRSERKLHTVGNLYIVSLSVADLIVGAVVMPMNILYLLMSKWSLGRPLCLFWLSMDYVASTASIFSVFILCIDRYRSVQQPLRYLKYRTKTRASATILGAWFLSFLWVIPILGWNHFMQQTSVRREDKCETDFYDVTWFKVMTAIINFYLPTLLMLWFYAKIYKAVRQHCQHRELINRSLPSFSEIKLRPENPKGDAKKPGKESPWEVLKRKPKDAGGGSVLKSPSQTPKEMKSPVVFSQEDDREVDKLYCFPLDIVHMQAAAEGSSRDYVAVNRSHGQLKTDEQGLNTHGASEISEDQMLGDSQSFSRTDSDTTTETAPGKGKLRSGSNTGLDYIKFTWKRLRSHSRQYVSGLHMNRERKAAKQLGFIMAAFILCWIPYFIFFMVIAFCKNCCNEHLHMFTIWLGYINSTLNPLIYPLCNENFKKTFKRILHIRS
Method: In another experiment, the ability of the various photoproteins to detect calcium flux in live cells was assessed by adding varying concentrations of histamine to cells in order to activate the H1 histamine receptor followed by measurement of bioluminescence of the various photoproteins. U-2OS cells were transfected with a cDNA encoding H1 histamine receptor along with a cDNA encoding either a wild-type photoprotein or a modified photoprotein according to the invention, as described above in Example 2, except that Lipofectamine-2000 (INVITROGEN) was used as the transfection reagent. On the second day, the cells were trypsinized, counted, and plated in a white tissue-culture treated 96-well plate (COSTAR) at a density of about 50,000 cells/well in growth media consisting of DMEM containing 10% fetal bovine serum, non-essential amino acids, HEPES and penicillin/streptomycin. On the third day, the medium was removed and cells were washed once with 200 μl/well of HBSS/HEPES (containing Ca^2+). Cells were subsequently incubated with 5 μM coelenterazine in HBSS/HEPES (containing Ca^2+) in a volume of 200 μl/well, for 3-4 hours at room temperature in the dark. After incubation, the coelenterazine solution was removed and cells were washed and replaced with HBSS/HEPES buffer containing both Ca^2+ and Mg^2+. 50 μl/well of histamine at varying concentrations in HBSS/HEPES containing both Ca^2+ and Mg^2+ was added to the cells and total bioluminescence was measured at 20 seconds using a Victor2 luminometer.
In an exemplary experiment, U-2OS cells were transfected, plated and loaded with coelenterazine as described in Example 3. Luminescence induced by buffer alone or by 10 μM histamine was measured also as described in Example 3. Additionally, luminescence induced by addition of Triton X-100 in the presence of 1 mM calcium was also determined in order to assess the total amount of active photoprotein detectable using saturating calcium concentrations in cells.

H1 histamine receptor [5] = target: T4, H1 histamine receptor; assay: H1 histamine receptor-mediated bioluminescence in U-2OS cells (FIG. 3); assay type: cell-based; conditions: total bioluminescence at 20 seconds
Text: Following the generation of modified forms of Clytin, the various variants were compared with wt-Aequorin for their affinity for intracellular calcium in transient transfection assays using co-transfection with the H1 histamine receptor (Genbank Accession No. NM_000861, obtained by PCR using H1-specific primers from a human brain cDNA library, forward primer 5′-[…] ATTCCTC-3′ (SEQ ID NO:60), reverse primer 5′-[…] AATTCTC-3′ (SEQ ID NO:61).
In another experiment, the ability of the various photoproteins to detect calcium flux in live cells was assessed by adding varying concentrations of histamine to cells in order to activate the H1 histamine receptor followed by measurement of bioluminescence of the various photoproteins. […] On the second day, the cells were trypsinized, counted, and plated in a white tissue-culture treated 96-well plate (COSTAR) at a density of about 50,000 cells/well in growth media consisting of DMEM containing 10% fetal bovine serum, non-essential amino acids, HEPES and penicillin/streptomycin. […] 50 μl/well of histamine at varying concentrations in HBSS/HEPES containing both Ca^2+ and Mg^2+ was added to the cells and total bioluminescence was measured at 20 seconds using a Victor2 luminometer.

[6] = background statement; cited from earlier work
[7] = HEK293T cells, GIP Receptor + promiscuous G protein
[8] = HEK293T cells, GIP Receptor + promiscuous G protein, luminescence vs GIP concentration
[9] = listed as cytosolic Clytin K168D

Molecule	EC50 (EP1 Receptor [1]; Luminescent Assay, Thaw/Assay)	EC50 (EP1 Receptor [1]; Luminescent assay, Thaw/ON Recovery)	EC50 (EP1 Receptor [2])	EC50 (AITC dose response) (TRPA1 cation channel)	signal (AITC-induced bioluminescence) (TRPA1 cation channel)	signal intensities, GIP dose response (FIG. 5) (GIP Receptor; HEK293T cells, GIP 10^−11 to 10^−6 M)	Max signal with GIP (RLU × 10^−5) (GIP Receptor; [7])	Max signal with GIP (RLU × 10^−5) (GIP Receptor; HEK293T cells, GIP Receptor + promiscuous G protein, listed as cytosolic Clytin K168D)	EC50 (GIP Receptor; [8])	EC50 for GIP (nM) (GIP Receptor; [8])	% GPCR/total (GIP Receptor)	% GPCR/total (GIP Receptor; [9])	Signal: background with GIP (GIP Receptor)	Signal: background with GIP (GIP Receptor; [9])	EC50 [3]	GPCR-mediated signal as % of the total signal (H1 histamine receptor [4])	luminescence induced by histamine (H1 histamine receptor [5])	affinity for calcium [6]
CCCCC[C@H](O)/C=C/[C@H]1[C@H](O)CC(=O)[C@@H]1C/C=C\CCCC(=O)O [PGE2, prostaglandin E2]	6 nM	10 nM	3 nM	–	–	–	–	–	–	–	–	–	–	–	–	–	–	–
B1	–	–	–	lower EC50 than cytosolic wild-type Clytin	higher signal than cytosolic and mitochondrial Aequorin	significantly higher signal intensities than any of the wild-type photoproteins	8.76 RLU × 10^−5	highest maximal signal	4.01 nM	lowest EC50	55.6%	highest % GPCR/total	74.3	highest signal to background ratio	160 nM	~100%	much higher luminescence than the other forms of Clytin and Aequorin	–
B2	–	–	–	–	–	–	1.21 RLU × 10^−5	–	6.67 nM	–	13.0%	–	29.4	–	235 nM	about 30%	–	around 7 μM
